Source: patent US20030198640A1 (Human Genome Sciences, published 2003)

B2: human LIGHT protein, natural secreted form (aa 83-240), E. coli (ligand)
chain: LIQERRSHEVNPAAHLTGANSSLTGSGGPLLWETQLGLAFLRGLSYHDGALVVTKAGYYYIYSKVQLGGVGCPLGLASTITHGLYKRTPRYPEELELLVSQQSPCGRATSSSRVWWDSSFLGGVVHLEAGEEVVVRVLDERLVRLRDGTRSYFGAFMV
notes: also called soluble LIGHT
B3: full-length human TR6 (without Fc), baculovirus/Sf9 (receptor)
chain: VAETPTYPWRDAETGERLVCAQCPPGTFVQRPCRRDSPTTCGPCPPRHYTQFWNYLERCRYCNVLCGEREEEARACHATHNRACRCRTGFFAHAGFCLEHASCPPGAGVIAPGTPSQNTQCQPCPPGTFSASSSSSEQCQPHRNCTALGLALNVPGSSSHDTLCTSCTGFPLSTRVPGAEECERAVIDFVAFQDISIKRLQRLLQALEAPEGWGPTPRAGRAALQLKLRRRLTELLGAQDGALLVRLLQALRVARMPGLERSVRERFLPVH
notes: also called soluble TR6; non-Fc form of TR6

Experiments:
[1] = target: T1, DR3, full length, on cells (transfected 293T cells; naturally expressed on TF-1 cells and T cells) (human, UniProt Q93038 25-417); assay: cell-based or functional assay
T1 sequence: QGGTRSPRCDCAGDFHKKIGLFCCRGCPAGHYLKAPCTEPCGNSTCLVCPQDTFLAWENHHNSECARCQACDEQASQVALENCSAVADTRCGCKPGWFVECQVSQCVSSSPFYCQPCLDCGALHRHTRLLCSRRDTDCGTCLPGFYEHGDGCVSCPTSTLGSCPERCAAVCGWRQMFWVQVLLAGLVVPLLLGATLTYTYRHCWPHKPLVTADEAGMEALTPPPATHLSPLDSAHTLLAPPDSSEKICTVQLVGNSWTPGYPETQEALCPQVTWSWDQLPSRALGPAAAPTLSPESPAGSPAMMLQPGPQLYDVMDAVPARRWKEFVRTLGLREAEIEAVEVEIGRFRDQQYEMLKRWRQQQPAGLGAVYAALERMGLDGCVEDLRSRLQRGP

[2] = target: B3; assay: BIAcore; non-Fc TR6
[3] = target: T2, TR2-Fc (extracellular domain of human TR2, aa 1-192, fused to the Fc domain of human IgG1) (human, UniProt Q92956 39-192); assay: BIAcore, TR2-Fc immobilised; TR2-Fc, not TR6
T2 construct: range 1-192; also called HveA-Fc; not shown: Fc domain of human IgG1
T2 sequence (looked up): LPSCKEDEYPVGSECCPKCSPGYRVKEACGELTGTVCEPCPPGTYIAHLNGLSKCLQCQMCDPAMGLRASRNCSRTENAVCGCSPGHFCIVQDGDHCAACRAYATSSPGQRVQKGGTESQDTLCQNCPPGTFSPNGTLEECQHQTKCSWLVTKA

[4] = target: T3, TR6-Fc (full-length human TNFR-6 alpha, SEQ ID NO:6 aa 1-300, fused to the Fc domain of human IgG1) (human, UniProt O95407 30-300); assay: BIAcore; TR6-Fc form
T3 construct: also called TNFR-6 alpha Fc fusion protein; DcR3-Fc; not shown: Fc domain of human IgG1
T3 sequence: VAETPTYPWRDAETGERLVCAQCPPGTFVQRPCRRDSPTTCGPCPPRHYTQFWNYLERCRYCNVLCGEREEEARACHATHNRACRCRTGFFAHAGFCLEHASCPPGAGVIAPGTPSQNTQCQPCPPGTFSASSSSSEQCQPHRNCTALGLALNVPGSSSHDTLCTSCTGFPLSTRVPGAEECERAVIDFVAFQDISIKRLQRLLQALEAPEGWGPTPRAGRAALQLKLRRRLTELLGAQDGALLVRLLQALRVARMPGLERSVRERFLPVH
Protocol: (§1) The amount of bound protein was determined during washing of the flow cell with HBS buffer (10 mM HEPES, pH 7.4, 150 mM NaCl, 3.4 mM EDTA, 0.005% Surfactant P20). The flow cell surface was regenerated by washing off the bound proteins with 20 microliters of 10 mM glycine-HCl pH 2.3. […] The on- and off-rates were determined according a kinetic evaluation program in the BiaEvaluation 3 software using a 1:1 binding model and the global analysis method.
(§2) We determined the kinetics of binding of LIGHT to both the Fe and non-Fc versions of TR6 according to BIAcore analysis.

[5] = target: B2; assay: BIAcore
Protocol: as §1, §2

[6] = target: T4, full length TNF-gamma-beta expressed on the cell surface (HEK293F stable transfectants); cells transfected … (human, UniProt O95150 1-251); assay: flow cytometry competition on HEK293F cells expressing TNF-gamma-beta; competitor of DR3-Fc
T4 construct: also called TNF-gamma-beta expressing cells
T4 sequence: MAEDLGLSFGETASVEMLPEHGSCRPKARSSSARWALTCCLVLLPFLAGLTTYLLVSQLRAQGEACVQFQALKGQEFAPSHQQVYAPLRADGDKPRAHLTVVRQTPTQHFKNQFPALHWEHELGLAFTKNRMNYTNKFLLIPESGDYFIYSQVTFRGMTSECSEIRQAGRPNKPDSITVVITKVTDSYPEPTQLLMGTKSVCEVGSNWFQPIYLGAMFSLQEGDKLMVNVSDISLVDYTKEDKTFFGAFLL
Protocol: (§3) These cells were used to screen the Fc-fusion form of the extracellular domain of TNFR family members, including TNFR1, Fas, HveA, DR3, DR4, DR5, DR6, DcR1, DcR2, TR6, OPG, RANK, AITR, TAC1, CD40, and OX40. […] TR6 has been previously described as a decoy receptor (Pitti et al., Nature 396:699-703 (1998); Yu et al., J. Biol. Chem. 274:13733-6 (1999)) capable of competing with Fas and HveA for binding of FasL and LIGHT, respectively.
(§4) One million cells, in 0.1 ml of FACS buffer (PBS, 0.1% BSA, 0.1% NaN₃), were incubated with 0.1-1 microgram of protein or antibody at RT for 15 min. The cells were washed with 3 ml of FACS buffer, reacted with biotinylated primary antibody, and stained with PE-conjugated secondary antibody at RT for 15 min. Cells were then washed again, resuspended in 0.5 microgram/ml of propidium iodide, and live cells were gated and analyzed on a FACScan using the CellQuest software (BD Biosciences).

[7] = target: T3, TR6-Fc (full-length human TNFR-6 alpha, …); assay: flow cytometry on 293 cells overexpressing LIGHT
Protocol: Cells were incubated with Fc-fusion proteins in 100 ul FACS buffer (d-PBS with 0.1% sodium azide and 0.1% BSA) for 15-20 minutes at room temperature. The cells were washed once and reacted with goat F (ab)₂ anti-human IgG (Southern Biotechnology, Birmingham, Ala.) for 15 minutes at room temperature. After wash, the cells were resuspended in 0.5 ug/ml propidium iodide, and live cells were gated and analyzed on a FACScan (BD Biosciences, Mansfield, Mass.).
This was tested on 293 cells overexpressing LIGHT according to flow cytometry.

[8] = target: B3; assay: flow cytometry competition on activated human T cells
[9] = target: T4, full length TNF-gamma-beta expressed on …; assay: flow cytometry on HEK293F cells expressing full length TNF-gamma-beta
Protocol: as §3, §4

B1: TNF-gamma-β (form used not stated) (ligand)
chain: LKGQEFAPSHQQVYAPLRADGDKPRAHLTVVRQTPTQHFKNQFPALHWEHELGLAFTKNRMNYTNKFLLIPESGDYFIYSQVTFRGMTSECSEIRQAGRPNKPDSITVVITKVTDSYPEPTQLLMGTKSVCEVGSNWFQPIYLGAMFSLQEGDKLMVNVSDISLVDYTKEDKTFFGAFLL
In the case of B1, the “IFNγ production by anti-CD2 stimulated lamina propria mononuclear cells (ELISA)” value [1] is reported as ≥ 2 fold.

B2 gave a Kd [2] of 14.3 nM, a koff [2] of 0.00483 s⁻¹ and a kon [2] of 338000 M⁻¹ s⁻¹. For the same binder, the Kd [3] was 4.56 nM, the Kd [4] was 5.46 nM and the koff [4] was 0.0023 s⁻¹. For the same binder, the kon [4] was 422000 M⁻¹ s⁻¹.

B3 was tested, and the “fold off rate against TR6-Fc” value [5] was ~2 fold and the “molar ratio TR6 to DR3-Fc at which no DR3-Fc binding was detected” value [6] was 2 molar ratio (TR6:DR3-Fc).

B4: full-length human LIGHT on cells (293F stable transfectants; endogenous LIGHT on activated human T cells) (ligand)
chain: MEESVVRPSVFVVDGQTDIPFTRLGRSHRRQSCSVARVGLGLLLLLMGAGLAVQGWFLLQLHWRLGEMVTRLPDGPAGSWEQLIQERRSHEVNPAAHLTGANSSLTGSGGPLLWETQLGLAFLRGLSYHDGALVVTKAGYYYIYSKVQLGGVGCPLGLASTITHGLYKRTPRYPEELELLVSQQSPCGRATSSSRVWWDSSFLGGVVHLEAGEEVVVRVLDERLVRLRDGTRSYFGAFMV
notes: also called cell membrane LIGHT; LIGHT-transfectants
B4: binds [7]; binds [8].

B5: DcR2 (Fc-fusion form of the extracellular domain) (Fc fusion, UniProt Q9UBN6 56-211, looked up)
chain: ATIPRQDEVPQQTVAPQQQRRSLKEEECPAGSHRSEYTGACNPCTEGVDYTIASNNLPSCLLCTVCKSGQTNKSSCTTTRDTVCQCEKGSFQDKNSPEMCRTCRTGCPRGMVKVSNCTPRSDIKCKNESAASSTGKTPAAEETVTTILGMLASPYH
notes: extracellular domain; not shown: Fc part
B5: no binding [9].

B6: OPG (Fc-fusion form) (Fc fusion, UniProt O00300 22-194, looked up)
chain: ETFPPKYLHYDEETSHQLLCDKCPPGTYLKQHCTAKWKTVCAPCPDHYYTDSWHTSDECLYCSPVCKELQYVKQECNRTHNRVCECKEGRYLEIEFCLKHRSCPPGFGVVQAGTPERNTVCKRCPDGFFSNETSSKAPCRKHTNCSVFGLLLTQKGNATHDNICSGNSESTQK
notes: as for B5
B6: no binding [9].

B7: RANK (Fc-fusion form of the extracellular domain) (Fc fusion, UniProt Q9Y6Q6 30-212, looked up)
chain: IAPPCTSEKHYEHLGRCCNKCEPGKYMSSKCTTTSDSVCLPCGPDEYLDSWNEEDKCLLHKVCDTGKALVAVVAGNSTTPRRCACTAGYHWSQDCECCRRNTECAPGLGAQHPLQLNKDTVCKPCLAGYFSDAFSSTDKCRPWTNCTFLGKRVEHHGTEKSDAVCSSSLPARKPPNEPHVYLP
notes: as for B5
B7: no binding [9].

B8: AITR (Fc-fusion form of the extracellular domain) (Fc fusion, UniProt Q9Y5U5 26-162, looked up)
chain: QRPTGGPGCGPGRLLLGTGTDARCCRVHTTRCCRDYPGEECCSEWDCMCVQPEFHCGDPCCTTCRHHPCPPGQGVQSQGKFSFGFQCIDCASGTFSGGHEGHCKPWTDCTQFGFLTVFPGNKTHNAVCVPGSPPAEP
notes: as for B5
B8: no binding [9].

B9: OX40 (Fc-fusion form of the extracellular domain) (Fc fusion, UniProt P43489 29-214, looked up)
chain: LHCVGDTYPSNDRCCHECRPGNGMVSRCSRSQNTVCRPCGPGFYNDVVSSKPCKPCTWCNLRSGSERKQLCTATQDTVCRCRAGTQPLDSYKPGVDCAPCPPGHFSPGDNQACKPWTNCTLAGKHTLQPASNSSDAICEDRDPPATQPQETQGPPARPITVQPTEAWPRTSQGPSTRPVEVPGGRA
notes: as for B5
B9: no binding [9].

B10: TNFR1-Fc (Fc fusion, UniProt P19438 30-211, looked up)
chain: LVPHLGDREKRDSVCPQGKYIHPQNNSICCTKCHKGTYLYNDCPGPGQDTDCRECESGSFTASENHLRHCLSCSKCRKEMGQVEISSCTVDRDTVCGCRKNQYRHYWSENLFQCFNCSLCLNGTVHLSCQEKQNTVCTCHAGFFLRENECVSCSNCKKSLECTKLCLPQIENVKGTEDSGTT
notes: as for B5
B10: no binding [9].

B11: DcR1 (Fc-fusion form of the extracellular domain) (Fc fusion, UniProt O14798 26-221, looked up)
chain: ATTARQEEVPQQTVAPQQQRHSFKGEECPAGSHRSEHTGACNPCTEGVDYTNASNNEPSCFPCTVCKSDQKHKSSCTMTRDTVCQCKEGTFRNENSPEMCRKCSRCPSGEVQVSNCTSWDDIQCVEEFGANATVETPAAEETMNTSPGTPAPAAEETMNTSPGTPAPAAEETMTTSPGTPAPAAEETMTTSPGTPA
notes: as for B5
B11: no binding [9].
